Experimental data: the supplement of paper PMC11502859

Test system: HEK293T
Experiment: median enrichment of reporter reads in eGFP-reduced (low/intermediate) vs eGFP-high sorted cells (eGFP-extension fusion abundance) (ratio); higher = stronger loss of eGFP-fusion protein abundance (more destabilising extension)
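Note: lentiviral eGFP-IRES-mCherry reporter pool sorted by FACS 96 h post-transduction, gated on mCherry-high cells, Illumina read counts normalized per million, median across four biological replicates.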

Substance | median enrichment
CSFQRNMVSGQKDC [ZNF831] | 0.731
RILDQ [SH3KBP1] | 1.07
GGRACTGATQPGLGAASPQPPRAKNLFIKECFGTL [LMNA] | 17.9
RQADEGATLTQSPQKAKCDSQVSSLTQR [PCARE] | 0.302
RGAGTCDRLWWHH [NAGA] | 1.53
KKVGTMRGVGYP [Degron APPBP2] | 4.39
KFFRMQPGGTWI [DCAF4L2] | 2.96
KVCRSQ [KRTAP11-1] | 3.09
RSRVFQVPGPWL [MYL4] | 1.67
YEPEYSR [GBP4] | 0.833
GRGMASGREGGIVGGQGSGFGSRWEQGLVKLFVSGPQ [PAQR7] | 12.5
RGWDPLLKLVASAGLGAAPQRLQLIC [FES] | 32.6
LSFRQFSSNGPFQGRPLPLRKSCDCILSDGNISMALLGYSA [HIST1H4B] | 5.72
RCKPPYESTVADRRRGGCCSCRSINMCCMSFLLFF [LMO7] | 22.4
YVHGLSLYPTALLCDSLMKLVTFTSQNFG [KDM4D] | 7.32
LFRCYSSLLKDDENAECLFKCF [GABRA4] | 13.1
LVRRLGAPPRLRPASISLLQWPAS [IRF8] | 7.26
LIPQPGLPVHLLTLLKSSIVVIL [CD46] | 10.7
WWPRIPIEQHKARLG [RNF216] | 26.7
RGKTTGRPESGPARCSGEFLISSHWGN [BPIFB2] | 0.953
WADPVGIRAAPSGAGTAGTAAILLLLVFFLLSKINCGNILVSCDVRCSFVVKFAIDIEIMTSVFPEIKHVSTQDFLDHSRKCQ [KISS1R] | 10.9
WDRAGDEARPWTLHPAIETGLRRKEDPGQDPGRLATPPTPRTYSR [NUPR1] | 5.32
SRFCHVNVSLSGLQLRRKRRKT [SMIM11A] | 5.41
WARGHARAVQSWPGPPVGLLCSLPSLPPDAGPCCSLRTIRSSCSCHPHLETCLCAHLKMGSVPVLKCPVAAPVVEDQGLRFGT [FRMD8] | 5.56
WMQLVCHSI [SERPINB4] | 10.7

Substance | median enrichment
LLK [HGF] | 1.66
KMF [EFCAB2] | 0.649
KRTQPPSAQREATSQPRGGRIRKQSHS [CCK] | 0
QPHGAVLLMLEAS [ESPL1] | 6.52
SLCFV [E2F3] | 2.42
QDGWGWR [SCPEP1] | 0.778
LATATALPVRQAPKGGGGMAQEEGCEEEEGEMAVASGSALQL [FAM228A] | 0.27
RQLQELNSLAPEELAAQEAKLAF [TMEM81] | 0.0302
REQ [UNC93A] | 5.69
QPDKRNKLFFLMDCSKRSLKIPWLSTYKTYYLNKEEYYVNIHIKNFGGFEKNELYIYKSTLKTNFNCLKQLF [NLGN1] | 24
SFFSLSRFLAALVLL [LONRF2] | 8.16
LSSQLPGPLP [COMMD9] | 0.399
WATLRSVFPLPPSPHVRRPPPRCSRGS [C19orf57] | 15.9
CGIQRERGSGRGGPEWGRLEGYRPAWMT [SNCG] | 3.44
LDFMHSSERVTVTTVLSPISHKLLFVSKRMLLLLHCFPFAGTCWCLLLNWPALLAVWHCSLGRLLCSLYLHYRLVNLPTSSL [DCUN1D4] | 4.52
SRGSHAPPPPCHSLGPHLPLP [SDC1] | 0.282
QTHGTDSLGN [DPF3] | 0.444
LALYLGSGQELHLGTNSC [ABCF2] | 6.15
SEERMYVCFTHRHQESSPMRFFFGGGRVYTAREQKYCVS [B4GALT5] | 9.99
WREGSNGSRELDTVHPNTSPPPGHLEESSARIPRQSSPPAPAVPSCAVLLPHSAPGPCPFIPLKHPLKPLHHFHSQQKVIEHL [HAUS5] | 4.17
WWWRHAQWMILLLPATSTSRNESLGGCQELVLAPPPP [MAP4K1] | 13
RCFRRLFFSSRSCHLIILH [COMMD10] | 7.76
EGN [CYTL1] | 0.312
YYYYYYYY [Tyr08] | 5.87
RSSTRDWKDHKLKWRKDPQDT [FCGR3B] | 2.73

Substance | median enrichment
LVWGPCQPAAPKPAPLPKQPRPLPLNPGPGRPGRPPVTAAAPALCRAALTCLPSQPLTSRLSLGQREPFGGAACLLWFWEG [FLNA] | 3.92
YHPGL [GORASP1] | 0.424
LPAASLHAPRSSLHGSPGRWQTMLRLHQGHRGAEGPMGEERRALLGKVGFLDPRDKLFRCHNVEESTWGTTVLVQVGLGKCTS [IGHMBP2] | 3.92
QQQQQQQQQQ [Gln10] | 0.317
WSAVA [EFCAB2] | 0.771
GFHSRGCCKQRDCHLELGWQGRAASFDSESSCPSPKPPPTP [SYT6] | 0.961
YQLFAISCTQTCVIYAPGNQ [MAST2] | 7.02
SQL [AMBN] | 0.898
WSQLTSLSRKVYP [CD9] | 1.91
RKGGSYSQAAM [HLA-G] | 0.441
FFFFF [Phe05] | 7.46
WWSCDVHEVLPHALEGSESRVNCPADILLGFLA [SLC7A6OS] | 8.62
APRAPRQRSRDG [Degron KLHDC3] | 10.8
KCEACDKVSIWKSHLKDIGEFILERKLTNVRFLTRLGSDSHLEQHTGLHTGEKPYKCNECGKAFGKQSTLIHHQAIHGVGKLD [ZNF611] | 6.92
KRASTSEWPHLCPRC [NUMA1] | 0.399
LILKLHPQ [BZW1] | 4.65
SNNQQYSRSNQHHHVIMVLWHICNIKILN [ACOX2] | 5.11
SQREENILVLFFFQKKRKIKEIYPLLPLHLSQ [SLITRK3] | 40.1
KAQKTEALLPLAGSRDI [PNMA5] | 0.301
LINARSHPMIILNYSHYF [LRRIQ3] | 6.8
EAWLPPESCSLKLGF [POU2AF1] | 0.528
SPQGRAATRRDMPGRGQDKMQTFFFF [APOL1] | 1.16
YVCAEESKTPFRATIPQ [SLC22A25] | 1.62
RNKKFWVLSS [RGCC] | 1.68
SPHPAPPPPRPTRRPPDSSPGASSATPSLHPWGPSPPACTEQGLGVSWEA [ITGB4] | 0.621

Substance | median enrichment
WWLWLQRT [FAAH] | 11.2
RTF [KBTBD3] | 0.378
YGSRRILTHRKGAHGTQVKEVLLARYGGSRL [SMYD4] | 5.15
SAIHL [XKR9] | 0.425
QWLSGSMC [LYPD6] | 0.958
QHGETPSLLKIQKKLARHGGGRL [FBLIM1] | 0.0978
LPAIDNVAGTSASPLQPSNFPGTLLSAPEEGAVVSCCLWAPASSAVLGSVLLASVNNKATVCSGICGFVHSVTCHLHRALMAG [MCM5] | 5.35
SCRDSPAPKYK [MT1G] | 0.15
RRLARKMPRGG [TRAPPC3L] | 5.87
QQFSHFLHLSDRTHHLCLP [ZDHHC15] | 20.5
LWRQALQGGPDPRVVLTVLTVYLSSPRENASFEHTVPTICIEQKDFCFTEDKRCFYFRPRREEFALNL [CNOT8] | 15.4
SGLWPGTRSHLAGRWLLPQFSLENPQLSTHPLPQNQFQ [RBM42] | 9.36
SDS [POLE2] | 0.445
YDSLVL [ALDH5A1] | 0.258
YNMTYSYSSLLSPLYSFFFNIFMTFKSLLYSLARKCTFFLLV [ADAMTS12] | 4.84
CSLG [MAGEC2] | 0.658
SESTGSSQTYRCPAR [FAM221B] | 0.476
SSSSS [Ser05] | 0.298
QSSQSSARP [SNX32] | 0.324
SRHIQVSFHHFIYKGDQCHRRVPEEMRSQGLS [MPV17L] | 4.12
EVGQPLMSWFLQLSFPLGCIEGFS [RAG1] | 6.39
QHWGRLPHPASGKPVAGHRVVPPVPS [SCLY] | 11
LHSCTPISRAASLPSRGLQQCAWLAAAPPRAPWPRRCQPT [THSD4] | 7.14
LLRG [ARPP19] | 4.64
RYQKKK [STARD6] | 0.951

Substance | median enrichment
RNLNGHYKLSNST [ARMC4] | 1.99
RGAEGPMGEERRALLGKVGFLDPRDKLFRCHNVEESTWGTTVLVQVGLGKCTSLPLTPRQNPHPSLWILGKVPVPGEYPGPQT [IGHMBP2] | 5.61
WGAAYQSLGSHLLRC [C11orf91] | 5.76
CCCCC [Cys05] | 4.25
YWVFGLTGARMDLQRQL [GPR149] | 5.42
YLARPDPLGPFFFADNHCPAASGTSGSQGTQSSLLAVDFPLLLEPPIKEIQRDSCRPEAEHTFMAGALRGVLDPAPGDTIHFY [PLOD1] | 9.08
SVIPGLSTPASPPAAGTALTLLSDPHSFPEMLRMFISPAPDPMSPGLRVCFPHIGLTVSL [KLK5] | 12.1
WGWGWTNNQARAEGFMERPLGDPR [S1PR2] | 3.36
LMPSTAADLWLDLGKGSIVLGKSTRSCKLGIHS [AGBL4] | 8.11
YVLRWNSLGEHLMSQPIQLPHNPAEGRVRGE [WDR62] | 7.76
YFTIKVKQRKLYAGHICMRIQLFSGCSTTK [TMPRSS11A] | 9.64
SLRSLRAGPSAAGSCLNTSLDMARTHRDTGQDQPCLWRQDTTIWPMAVTSCRVQSQTGNHHLRQDLPASFTFLISRALPPILC [SLC22A13] | 8.01
QGLQKNWPWGTKAFFSGLLPRP [KANK4] | 4.85
YGWWQPGFWPRAPPPD [PHC2] | 2.07
LPEKLCQLQGGSDFRKVV [HERPUD2] | 0.919
GSGP [LCE1D] | 0.314
KCYRLNDSASRLPKSKALFRAAHSFPQKSS [HIST1H4E] | 8.92
LSRLCTQGPSLATSLPFCLTPGHPSSLPHAQLPESPLCLTSPSTNGTPEGL [CYP11B1] | 2.58
LKVSVNLQC [ZFR] | 6.3
REVYLKKKSETDTSNPAVTTTPTTYVHMTNNFQVGFS [KCNH1] | 4.02
RHRGKRRKSC [CLDN1] | 0.381
AAA [Ala03] | 0.262
PVGKGGGLRGRGWMPRAPKPPFPFVSKGVRSELRKRASECVSLEGLGALWCYHLETCLMPPCLPMEDRLQELGPCGNLACFGG [MTA2] | 6.97
RGLLPLGPLTLSGWWTTKYNPVYNLKIYFTFVLLYLFIKG [SMAD4] | 6.89
